Drawing on paper PMC2737085, this text covers percent decrease in binding against RPA for 1 substance.

The assay addresses RPA heterotrimer with the phosphomimetic Asp8-RPA2 subunit (UniProt P27694). The assay can be described thus: co-IP.

“MRE11/RAD50/NBS1 (MRN) complex (from UniProt P49959 1-708; Q92878 1-1312; O60934 1-754)”: the percent decrease in binding against RPA was determined as 88%.
